Experimental data reported in paper PMC9887876.

Assays:
[1] = target: putative baseplate wedge protein GP075 of Pseudomonas phage K8, His-tagged (Pseudomonas phage K8); assay: SEC-MALS; 100 ul of protein solution (0.15-4.05 mg/ml) on a WTC-015S5 column; 100 mM NaCl, 50 mM Tris-HCl, 1 mM EDTA, 0.02% NaN3, pH 7.4; 0.4 ml/min; BSA as control; self-polymerization degree
[2] = target: GP075m, variant of the putative baseplate wedge protein GP075 with the substitution T239A (phage K8-T239A), His-tagged (Pseudomonas phage K8-T239A (derivative of phage K8)); assay: as above

| Substance | molar mass [1] | molar mass [2] |
| --- | --- | --- |
| putative baseplate wedge protein GP075 of Pseudomonas phage K8, His-tagged (natural protein) | 81.2 | – |
| GP075m, variant of the putative baseplate wedge protein GP075 with the substitution T239A (phage K8-T239A), His-tagged (natural protein) | – | 185 |
